This is an account of results in patent CN114685654A (GUANGDONG DONGSUNANG PHARMACEUTICAL CO LTD, dated 2022).

Experiment [1] deals with T1, 蛋白A.
T1 construct: also called FGF21-Fc融合蛋白
T1 chain: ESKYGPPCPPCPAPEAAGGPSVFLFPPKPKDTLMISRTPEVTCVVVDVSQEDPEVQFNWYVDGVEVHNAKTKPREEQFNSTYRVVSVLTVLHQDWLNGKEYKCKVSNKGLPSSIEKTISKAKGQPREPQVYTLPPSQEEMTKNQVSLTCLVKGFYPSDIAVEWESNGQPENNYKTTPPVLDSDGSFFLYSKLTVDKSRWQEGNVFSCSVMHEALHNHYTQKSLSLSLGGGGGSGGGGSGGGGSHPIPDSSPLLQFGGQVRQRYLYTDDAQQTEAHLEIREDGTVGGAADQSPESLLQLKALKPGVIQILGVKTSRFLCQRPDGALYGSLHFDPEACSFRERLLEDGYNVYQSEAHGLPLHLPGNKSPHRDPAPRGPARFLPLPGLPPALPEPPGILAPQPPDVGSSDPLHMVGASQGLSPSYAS
Nature of the experiment: sandwich ELISA, antibody coated at 2 μg/mL, protein at 5 and 10 ng/mL, detection with HRP mouse anti-human IgG4 Fc. Background: In an ELISA, binding on a coated surface is turned into a signal by an enzyme label.

The target of experiment [2] is T2, 蛋白B.
T2 construct: Counter-screen protein; also called FGF21-Fc融合蛋白
T2 chain: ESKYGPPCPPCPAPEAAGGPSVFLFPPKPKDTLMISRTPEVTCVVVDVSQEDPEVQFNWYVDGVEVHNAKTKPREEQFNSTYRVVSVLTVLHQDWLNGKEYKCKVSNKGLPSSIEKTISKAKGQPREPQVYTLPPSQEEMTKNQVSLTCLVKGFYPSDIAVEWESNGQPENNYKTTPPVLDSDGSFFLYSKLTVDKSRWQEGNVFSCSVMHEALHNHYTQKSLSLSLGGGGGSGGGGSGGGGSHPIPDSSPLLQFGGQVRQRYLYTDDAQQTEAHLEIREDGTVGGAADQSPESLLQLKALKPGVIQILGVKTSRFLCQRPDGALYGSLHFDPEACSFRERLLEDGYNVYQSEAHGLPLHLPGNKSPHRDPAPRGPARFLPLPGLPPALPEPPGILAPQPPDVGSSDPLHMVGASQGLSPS
Nature of the experiment: sandwich ELISA, antibody coated at 2 μg/mL, detection with HRP mouse anti-human IgG4 Fc.

The target of experiment [3] is T2, 蛋白B. Briefly: ELISA, protein coated.
The target of experiment [4] is T1, 蛋白A. Nature of the experiment: ELISA, protein coated at 0.1, 1, 5 μg/mL, antibody 1 μg/mL.
The target of experiment [5] is T2, 蛋白B. Nature of the experiment: indirect ELISA, hybridoma supernatant on coated protein.
Experiment [6] deals with T1, 蛋白A. The description is as above.

B1: MM21H (antibody, V domains shown)
VH: QIQLVQSGPELKKTGETVKMSCKASGYTFTNYGMNWVKQAPGKGLKLMGWINTYTGKPTYADDFKGRFAFSLETSASTAYLQINNLKNEDTATYFCATNYYDYDVAYWGQGTLVTVSA
VL: DIVMTQAAFSNPVTLGTSASISCRSSKSLLHSNGITYLYWFLQKPGQSPQVLIYQMSSLASGVPDRFSSSGSGTDFTLRISRVEAEDVGVYYCAQTLELPTFGGGTKLEIK
notes: also called MM21H鼠源单克隆抗体
On to B1, for which the binding result was “binds” in the experiment with 蛋白A [1] and “no binding (tested: 5ng/mL、10ng/mL)” in the experiment with 蛋白B [2].

B2: MM24T (antibody, mouse IgG1, kappa, V domains shown)
VH: QIQLVQSGPELKKPGETVKISCKASGYTFTNYGMNWVKQAPGKGLKLMGWINTYTGKPTYADDFKGRFAFSLETSASTAYLQLNNLKNEDTATYFCATNYYDYDIAYWGQGTLVAVSA
VL: DIVMTQAAFSNPVTLGTSASISCRSSKSLLHSNGITYLYWFLQKPGQSPQVLIYQMSNLASGVPDRFSSSGSGTDFTLRISRVEAEDVGVYYCAQTLELPTFGGGTKLEIKR
notes: only the CDRs are; also called MM24T重组抗体; MM24T抗体
Turning to B2, the binding result is on record as “no binding (tested: antibody 1μg/mL; coating 0.1、1、5μg/mL)” in the experiment with 蛋白B [3] and “binds” with 蛋白A [4].

B3: MM24H (antibody, V domains shown)
VH: QIQLVQSGPELKKPGETVKISCKASGYTFTNYGMNWVKQAPGKGLKLMGWINTYTGKPTYADDFKGRFAFSLETSASTAYLQLNNLKNEDTATYFCATNYYDYDIAYWGQGTLVAVSA
VL: DIVMTQAAFSNPVTLGTSASISCRSSKSLLHSNGITYLYWFLQKPGQSPQVLIYQMSNLASGVPDRFSSSGSGTDFTLRISRVEAEDVGVYYCAQTLELPTFGGGTKLEIK
notes: also called MM24H鼠源单克隆抗体
In the case of B3, the figures for the binding result with 蛋白B [5] and with 蛋白A [6] were “no binding” and “binds”, respectively.

B4: MM21T (antibody, mouse IgG1, kappa, V domains shown)
VH: QIQLVQSGPELKKTGETVKMSCKASGYTFTNYGMNWVKQAPGKGLKLMGWINTYTGKPTYADDFKGRFAFSLETSASTAYLQINNLKNEDTATYFCATNYYDYDVAYWGQGTLVTVSA
VL: DIVMTQAAFSNPVTLGTSASISCRSSKSLLHSNGITYLYWFLQKPGQSPQVLIYQMSSLASGVPDRFSSSGSGTDFTLRISRVEAEDVGVYYCAQTLELPTFGGGTKLEIKR
notes: only the CDRs are; also called MM21T重组抗体; MM21T抗体
As for B4, the binding result with 蛋白B [3] was “no binding (tested: antibody 1μg/mL; coating 0.1、1、5μg/mL)”; with 蛋白A [4] it was “binds”.
